Assay [1] has as its target Kluyveromyces marxianus GCN2 HRSL domain (residues 996-1511) (Kluyveromyces marxianus). The assay is described as follows: SEC. In general terms: Size exclusion chromatography separates by hydrodynamic size, large species first.
The target of assay [2] is ΔN-terminal GCN2 HRSL, mutant Δ(V996-N1009) of Kluyveromyces marxianus GCN2 HRSL (Kluyveromyces marxianus). The assay is described as follows: SEC.

Experimental findings from paper doi:10.1101/2024.04.24.591037 are described below.

In general, stoichiometry N refers to the number of molecules, sites or subunits per partner or assembly.

On to “Kluyveromyces marxianus GCN2 HRSL domain (residues 996-1511) (domain or fragment)”, for which, in assay [1], the stoichiometry N was determined as 2. “ΔN-terminal GCN2 HRSL, mutant Δ(V996-N1009) of Kluyveromyces marxianus GCN2 HRSL (domain or fragment)”: the stoichiometry N in assay [2] came to 2.
